In patent publication US20250361284A1, “TRANSPOSASE FUSION PROTEINS FOR USE IN CELL AND GENE THERAPY” (JULIUS-MAXIMILIANS-UNIVERSITÄT WÜRZBURG, priority 2022, published 2025):

Experiments:
Format in all cases: cell-based, human
[1] = test system: HeLa cells; assay: Transposition assay (G-418-resistant colonies) in HeLa cells; details: presence of TMP
Excerpt: (2D) Transposition assay for evaluating the activity of dd-SB100X fusion-transposase. HeLa cells were transfected with neomycin-marked transposon plasmid and construct expressing wild type SB transposase (SB100X) or fusion-transposase (dd-SB100X), and selected for transposition events by antibiotic selection with G-418. Data representing the number of G-418-resistant colonies are shown on the right.
An transposon donor vector with neomycin resistance gene was generated de novo in house using Gibson assembly. In order to test the activity (in terms of integration capability) of the fusion-transposase (dd-SB100X) transposition assay was performed in HeLa cells as per the published protocol (Ivics et al., 1997). Briefly, ˜150,000 HeLa cells were seeded into each well of a 6-well plate a day before transfection. […] After 10 days of selection, cells were washed with PBS, fixed with tissue culture fixing solution, stained with methylene blue and counted.
We next examined the activity of the fusion-transposase (dd-SB100X) by standard transposition assay wherein we transfected HeLa cells with a SB transposon donor plasmid encoding a neomycin resistance gene, together with plasmid encoding SB100X as a positive control, or the fusion-transposase protein. […] After 10 days, colonies were fixed, stained and counted to determine the integration events achieved under each of the experimental conditions.

[2] = test system: CD4+ T cells; assay: CAR gene transfer (EGFRt flow cytometry) in CD4+ T cells, dd-SB100X vs wild type SB100X plasmid; details: day 7
Procedure: (4A) CAR gene transfer in CD4+ T cells using dd-SB100X fusion-transposase vs. wild type SB100X transposase. CD3/CD28 activated CD4+ T cells were nucleofected with CD19-CAR_EGFRt SB transposon minicircle DNA and plasmid encoding either the fusion-transposase (pdd-SB100X/dd-SB100X) or the wild type SB transposase (pSB100X/SB100X). At 7 days post-nucleofection, flow cytometric analysis was performed to determine the percentage of T cells that express the EGFRt reporter. Top panel: Dot plots show EGFRt expression on day 7 post-nucleofection.
(§1) Anonymous healthy donor blood samples were received upon written consent to participate in research protocols approved by the Institutional Review Board of the Universitätsklinikum Würzburg (UKW). Blood samples were processed for T cells isolation as published earlier (Querques et al., 2019). Briefly, Peripheral blood mononuclear cells (PBMCs) were isolated by density centrifugation with Biocoll separating solution (Biochrom). Both CD4+ and CD8+ T cells were sorted by negative isolation approach using microbeads and magnetic associated cell sorting (MACS, Miltenyi) methods as described by the manufacturer. The isolated CD4+ and CD8+ T cells were cultured in T cell medium (RPMI-1640 with 10% (vol/vol) human serum, 2 mM L-glutamine, 100 U ml-1 penicillin-streptomycin) containing IL-2 (50 units per mL) and activated by anti-CD3/CD28 bead stimulation (Thermo Fisher). Two days post-activation, approximately 2 million T cells were nucleofected with vectors (1 μg of CD19 CAR (EGFRt)-encoding transposon as plasmid or minicircle DNA; 1 μg of mRNA encoding SB transposase) or 10 μg of hsSB protein (Querques et al., 2019) using a 4D Nucleofector (Lonza) as per the manufacturer's instructions. […]
We next investigated if the dd-SB100X fusion-transposase retained transposition activity in primary human T cells. […] We observed differences in CD19-CAR_EGFRt expression, as evidenced by mean fluorescence intensity (MFI) of EGFRt by flow cytometry.

[3] = test system: CD19 CAR T cells; assay: Transposon (CAR) copy number analysis by ddPCR in CAR T cells; details: plasmid-encoded transposase, EGFRt-enriched CAR T cells
Procedure: (4C) CAR Copy number analysis of CD8+ CD19 CAR T cells engineered with dd-SB100X fusion transposase. The number of integrations per genome was analyzed by ddPCR. Data shown are mean values of three biological replicates measured in technical triplicates and shown ±S.E.M. The data was analyzed using unpaired, two-tailed Student's T-test and differences were statistically significant (*, p=0.0274).
(6D) Transposon copy number analysis in EGFRt+ CD8+ T cells that were nucleofected with CD19-CAR_EGFRt SB transposon minicircle DNA and mRNA encoding either the wild type SB transposase (SB100X) or the fusion-transposase (dd-SB100X) assessed by digital droplet PCR.
Genomic DNA (gDNA) of CAR-positive T cells was isolated using dPureLink gDNA Mini Kit (Invitrogen, California, USA). Droplet digital PCR (ddPCR) was set up and analyzed in technical triplicates. Each ddPCR reaction contained ready-to-use ddPCR Supermix for Probes No dUTP (Bio-Rad, California, USA), 20 ng of the respective fragmented gDNA, 0.2 μL of CviQl (10 000 U/mL) (NEB, Frankfurt am Main, Germany), 0.1 μL of Dpnl (20,000 U/mL) (NEB, Frankfurt am Main, Germany), 200 nM of each respective ddPCR FAM/HEX probe, and 600 nM of each respective forward and reverse primer in a final volume of 25 μL. CviQl was used to fragment the gDNA to ensure single-copies per droplet. DPNI was used to specifically digest non-integrated vectors. […]

[4] = test system: K562/CD19 target cells; assay: Antigen specific proliferation (CFSE dye dilution) of CD19 CAR T cells; details: 72 hours, stimulation with K562/CD19 target cells
Procedure: (4E) Antigen specific proliferation by CD4+ CD19 CAR T cells engineered with dd-SB100X fusion transposase. Proliferation of CD4+ CAR T cells was examined by CFSE dye dilution after 72 hours of co-culture with K562/CD19 or K562 target cells. For analysis, triplicate wells were pooled and the proliferation of viable 7-AAD-negative T cells was analyzed. The division index (average number of cell divisions) was calculated using FlowJo software. Data shown are mean values ±s.d. of one representative experiment.
as §1, with “Fisher).” for “Fisher). Two days post-activation, approximately 2 million T cells were nucleofected with vectors (1 μg of CD19 CAR (EGFRt)-encoding transposon as plasmid or minicircle DNA; 1 μg of mRNA encoding SB transposase) or 10 μg of hsSB protein (Querques et al., 2019) using a 4D Nucleofector (Lonza) as per the manufacturer's instructions.”

[5] = test system: CD8+ T cells; assay: Gene transfer in CD8+ T cells with TMP priming before nucleofection; details: day 7
Procedure: CD8+ T cells were isolated from healthy donor PBMC and activated with CD3/CD28 bead stimulation. […] Cells were nucleofected with CD19-CAR_EGFRt SB transposon minicircle DNA and plasmid encoding either the wild type SB transposase (SB100X) or the fusion-transposase (dd-SB100X). […] At 7 days post-nucleofection, flow cytometric analysis was performed to determine the percentage of T cells that expresses the EGFRt reporter. Top panel: Dot plots show EGFRt expression on day 7 post-nucleofection.
as §1, with “instructions. CD19 CAR-modified (i.e., EGFRt+) T cells were enriched using biotin-conjugated anti-EGFR monoclonal antibody and anti-biotin beads (Miltenyi) as per the manufacturer's instructions.” for “instructions.”

B1: dd-SB100X: ecDHFR destabilizing domain fused via linker to N-terminus of SB100X transposase; SEQ ID NO: 2 (protein)
chain: MISLIAALAVDYVIGMENAMPWNLPADLAWFKRNTLNKPVIMGRHTWESIGRPLPGRKNIILSSQPSTDDRVTWVKSVDEAIAACGDVPEIMVIGGGRVIEQFLPKAQKLYLTHIDAEVEGDTHFPDYEPDDWESVFSEFHDADAQNSHSYCFEILERKLGGGAPAVGGGPKMGKSKEISQDLRKRIVDLHKSGSSLGAISKRLAVPRSSVQTIVRKYKHHGTTQPSYRSGRRRVLSPRDERTLVRKVQINPRTTAKDLVKMLEETGTKVSISTVKRVLYRHNLKGHSARKKPLLQNRHKKARLRFATAHGDKDRTFWRNVLWSDETKIELFGHNDHRYVWRKKGEACKPKNTIPTVKHGGGSIMLWGCFAAGGTGALHKIDGIMDAVQYVDILKQHLKTSVRKLKLGRKWVFQHDNDPKHTSKVVAKWLKDNKVKVLEWPSQSPDLNPIENLWAELKKRVRARRPTNLTQLHQLCQEEWAKIHPNYCGKLVEGYPKRLTQVKQFKGNATKY
modifications: misc_feature 1..1539 ecDHFR-SB100X
- transposition activity [1]: active and mediated transposition activity
- transposition activity compared to wild type SB100X [1]: reduced transposition activity
- gene transfer rate (EGFRt+ T cells) ([2]; cultured in absence of TMP after nucleofection): ~6.6%
- gene transfer rate (EGFRt+ T cells) ([2]; dd-SB100X cultured in presence of TMP after nucleofection, SB100X wild type control): ~18%
- MFI of EGFRt compared to wild type SB100X ([2]; presence of TMP): lower MFI
- transposon copies per genome (average) [3]: 2.99 copies per genome
- proliferation (cell divisions) [4]: > 3 cell divisions
- MFI of EGFRt expression compared to wild type SB100X [5]: lower MFI
- gene transfer (EGFRt+ T cells) ([5]; not primed with TMP): ~26.1%
- gene transfer (EGFRt+ T cells) ([5]; primed with TMP 1000 nM for 24 hours before nucleofection): ~29.7%
